Our source for the Kd values is patent publication US20110064746A1 (published 2011).

In the experiment the target is T1, recombinant HMGB-1 (Homo sapiens (Human), UniProt P09429 1-215).
T1 construct: also called recombinant HMGB1 protein; recombinant HMGB-1 obtained from R&D system
T1 sequence: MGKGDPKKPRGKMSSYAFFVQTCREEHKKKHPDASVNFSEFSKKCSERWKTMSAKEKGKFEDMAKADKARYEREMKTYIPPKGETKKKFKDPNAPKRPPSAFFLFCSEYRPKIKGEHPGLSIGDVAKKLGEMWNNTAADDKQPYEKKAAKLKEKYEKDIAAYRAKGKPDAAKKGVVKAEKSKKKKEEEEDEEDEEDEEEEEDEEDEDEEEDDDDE
Put plainly: SPR, BIACORE3000. Background: SPR reads the build-up and loss of mass on a sensor chip optically.

B1: anti-HMGB-1 mAb 3B1 (antibody, V domains shown)
VH: QVQLQQPGAELVKPGASVKLSCKASGYTFTSYWMHWVKQRPGQGLEWIGNIDPSDSETHYNQKFKDKATLTVDKSSSTAYMQLNSLTSEDSAVYYCAKRGYYGYDYWGQGTTLTV
VL: DVLMTQTPLSLPVSLGDQASISCRSSQSIVHSNGNTYLEWYLQKAGQSPKLLIYKVSNRFSGVPDRFSGSGSGTDFTLKISRVEAEDLGVYYCFQGAHVPRTFGGGTKLEIK
One may read the Kd as a measure of binding affinity in units of concentration. With B1, the dissociation constant Kd was determined as 7.8 nM.

B2: anti-HMGB-1 mAb 3E8 (antibody, V domains shown)
VH: QVQLQQSGPELVKPGASVKISCKASGYAFSNYWMNWVKQRPGKGLEWIGRIYPGDGDMAYNGKFRGKATLTADKSSSTAYMQLSSLTSEDSAVYFCARSLDGYVGYVMDYWGQGTSVTVSS
VL: DIVMTQAAPSVPVTPGESVSISCRSSKSLLHRNGNIFLYWFLQRPGQSPQLLIYRMSNLASGVPDRFSGSGSGTAFTLRISRVETEDVGVYYCMQHLEYPFTFGSGTKLEIK
With B2, the Kd worked out at 1.3 nM.
